Experimental data: patent US6897291B1, “pH sensitive potassium channel in spermatocytes” (Icagen, Incorporated, priority 1997, dated 2005)

Legend:
mSlo3 = target: T1, mSlo3 (Mus musculus, UniProt O54982, V141G); assay: mSlo3 currents expressed in Xenopus oocytes, electrophysiology; assay type: cell-based
T1 construct: A full-length mSlo3 cDNA was cloned into pBSC-MXT; expressed in transfected cells; host or cells: Xenopus oocytes (cRNA injection)
T1 sequence (O54982 with tags, fused parts or gaps V141G limits assumed): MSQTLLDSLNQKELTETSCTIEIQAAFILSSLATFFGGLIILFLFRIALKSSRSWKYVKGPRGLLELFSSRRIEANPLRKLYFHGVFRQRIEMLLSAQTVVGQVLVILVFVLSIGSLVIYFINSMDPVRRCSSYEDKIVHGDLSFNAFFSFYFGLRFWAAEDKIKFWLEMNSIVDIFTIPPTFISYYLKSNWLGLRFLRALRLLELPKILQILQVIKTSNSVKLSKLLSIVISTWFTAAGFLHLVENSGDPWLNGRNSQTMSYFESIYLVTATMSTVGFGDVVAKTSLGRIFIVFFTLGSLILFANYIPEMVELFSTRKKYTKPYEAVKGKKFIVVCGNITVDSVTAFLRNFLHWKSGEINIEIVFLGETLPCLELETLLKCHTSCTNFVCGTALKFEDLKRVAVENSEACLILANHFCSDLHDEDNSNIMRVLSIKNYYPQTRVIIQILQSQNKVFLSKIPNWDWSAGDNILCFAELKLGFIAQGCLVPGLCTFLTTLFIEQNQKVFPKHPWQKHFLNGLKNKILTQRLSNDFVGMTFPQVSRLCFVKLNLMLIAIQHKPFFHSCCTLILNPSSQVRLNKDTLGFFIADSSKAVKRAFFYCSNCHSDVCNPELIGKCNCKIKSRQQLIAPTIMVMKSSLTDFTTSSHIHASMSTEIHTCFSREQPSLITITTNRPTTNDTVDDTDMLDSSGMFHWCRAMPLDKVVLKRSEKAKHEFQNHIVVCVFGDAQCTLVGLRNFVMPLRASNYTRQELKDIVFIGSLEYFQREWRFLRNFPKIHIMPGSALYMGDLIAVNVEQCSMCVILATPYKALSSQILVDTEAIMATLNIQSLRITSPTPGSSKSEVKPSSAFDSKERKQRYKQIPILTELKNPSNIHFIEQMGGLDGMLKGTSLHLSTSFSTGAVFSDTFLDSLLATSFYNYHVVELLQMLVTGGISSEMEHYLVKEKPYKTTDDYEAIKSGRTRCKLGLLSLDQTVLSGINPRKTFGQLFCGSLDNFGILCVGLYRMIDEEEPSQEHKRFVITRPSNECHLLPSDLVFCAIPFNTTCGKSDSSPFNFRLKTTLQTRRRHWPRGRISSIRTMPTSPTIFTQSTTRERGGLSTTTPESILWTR
Method: A full-length mSlo3 cDNA was cloned into pBSC-MXT, a Bluescript-derived plasmid (Stratagene) containing Xenopus β-globin 5′ and 3′ untranslated sequences. cDNA expression constructs were linearized at a unique Not-I site, and capped cRNA was synthesized using the mMessage mMachine (Ambion). Reactions were precipitated with LiCl to remove the DNA template and resuspended in nuclease-free water at a final concentration of approximately 1 mg/ml. Oocytes were prepared for injection as previously described (Wei et al., Science 248:599-603 (1990)), except for the use of a Drummond nanojector. Approximately 50 nl of RNA in nuclease-free water was injected into each oocyte. Oocytes were incubated in ND96 medium (Wei et al., 1994, supra) and analyzed 1-8 days after injection.
cRNA (40 nl at approximately […]) was injected into mature Xenopus oocytes; recordings were made 1-8 days later. For whole cell-recording, medium nd96 (concentrations in mM; 96 NaCl, 2 KCl, 1.8 CaCl2, 1 MgCl2, 5 HEPES, pH 7.5) supplemented with 1 mM DIDS (to block endogenous chloride currents) employed as bath solution, or modified as noted in figure legends. Patches were perfused with either 0 Ca^2+ EGTA solutions (160 K gluconate, 34 KOH, 10 HEPES, and 10 EGTA) or Ca^2+-containing (184 K gluconate, 10 KOH, 10 HEPES, 200 mM hemicalcium gluconate) solutions. HCl was used to adjust pH. Pipet solution contained 0.5 K gluconate, 0.5 KCl, 1.1 KOH, 10 HEPES, 159 Na gluconate, and 2 hemiMg gluconate, pH 7.1. Recording. Two-electrode voltage clamp was carried out with a TEV-200 amplifier (Dagan). Patch currents were recorded on either an Axopatch 1B or 200A amplifier (Axon), and digitized at either 3.4, 5 or 10 kHz. Data acquisition and analysis programs were CCURRENT and CQUANT (Dr. Keith Baker) or pClamp6 (Axon). Recordings were made at room temperature except tail currents which were recorded at 11° C. using a Peltier device (Cambion).

mSlo1 = mSlo1 (Mus musculus, UniProt Q08460); conditions: mSlo1, comparison value; read-out: EC50 (sensitivity to TEA); cited from earlier work
Chain of mSlo1 (Q08460 whole entry): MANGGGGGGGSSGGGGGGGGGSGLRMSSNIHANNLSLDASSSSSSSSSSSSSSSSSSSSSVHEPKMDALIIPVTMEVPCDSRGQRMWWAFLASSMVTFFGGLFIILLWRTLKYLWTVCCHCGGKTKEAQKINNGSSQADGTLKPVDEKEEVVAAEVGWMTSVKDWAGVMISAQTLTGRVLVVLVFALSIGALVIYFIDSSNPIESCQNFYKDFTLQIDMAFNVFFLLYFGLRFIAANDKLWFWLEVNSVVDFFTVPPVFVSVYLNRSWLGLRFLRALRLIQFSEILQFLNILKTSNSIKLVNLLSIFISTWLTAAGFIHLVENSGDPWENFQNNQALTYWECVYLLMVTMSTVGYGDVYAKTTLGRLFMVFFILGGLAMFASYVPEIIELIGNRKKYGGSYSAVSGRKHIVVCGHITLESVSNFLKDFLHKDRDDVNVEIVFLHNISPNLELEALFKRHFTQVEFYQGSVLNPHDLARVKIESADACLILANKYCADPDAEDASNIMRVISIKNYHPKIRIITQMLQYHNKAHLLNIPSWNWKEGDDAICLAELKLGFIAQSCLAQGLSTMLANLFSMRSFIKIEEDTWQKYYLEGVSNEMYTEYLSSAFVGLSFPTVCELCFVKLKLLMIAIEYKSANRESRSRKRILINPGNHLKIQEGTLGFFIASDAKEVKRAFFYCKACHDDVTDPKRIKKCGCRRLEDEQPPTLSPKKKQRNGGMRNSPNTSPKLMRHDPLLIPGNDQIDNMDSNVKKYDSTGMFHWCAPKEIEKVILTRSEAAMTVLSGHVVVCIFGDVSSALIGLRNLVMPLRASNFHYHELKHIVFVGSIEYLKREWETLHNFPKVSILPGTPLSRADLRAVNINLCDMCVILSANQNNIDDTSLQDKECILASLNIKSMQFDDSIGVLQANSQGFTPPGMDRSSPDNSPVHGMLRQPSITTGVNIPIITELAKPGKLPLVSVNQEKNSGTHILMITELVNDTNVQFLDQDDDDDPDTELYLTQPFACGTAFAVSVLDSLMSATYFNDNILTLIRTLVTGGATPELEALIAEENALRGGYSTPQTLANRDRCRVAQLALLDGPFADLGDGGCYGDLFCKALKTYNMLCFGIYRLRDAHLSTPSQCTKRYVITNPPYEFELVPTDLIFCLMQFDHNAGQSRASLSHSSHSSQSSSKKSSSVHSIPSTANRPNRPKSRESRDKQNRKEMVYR

Q: Which “effect on mSlo3 currents” value (mSlo3; iberiotoxin 20 nM) does the source give for “iberiotoxin (QFTDVDCSVSKECWSVCKDLFGVDRGKCMGKKCRCYQ)” here?
A: did not affect

Q: With `CC[N+](CC)(CC)CC` [TEA] as the compound, how does the EC50 (mSlo3; mSlo3 expressed in Xenopus oocytes, read-out: EC50 (sensitivity to TEA)) read?
A: ~100 mM

Q: And the EC50 (mSlo1)?
A: < 0.2 mM

Q: With charybdotoxin as the compound, how does the “effect on mSlo3 currents” value (mSlo3; charybdotoxin 50 nM) read?
A: did not affect
